Results reported in paper PMC3267324 (Molecular Cell, 2011).

T1: GST-tagged full-length PARI (human, UniProt Q9NWS1 1-579)
T1 sequence (looked up): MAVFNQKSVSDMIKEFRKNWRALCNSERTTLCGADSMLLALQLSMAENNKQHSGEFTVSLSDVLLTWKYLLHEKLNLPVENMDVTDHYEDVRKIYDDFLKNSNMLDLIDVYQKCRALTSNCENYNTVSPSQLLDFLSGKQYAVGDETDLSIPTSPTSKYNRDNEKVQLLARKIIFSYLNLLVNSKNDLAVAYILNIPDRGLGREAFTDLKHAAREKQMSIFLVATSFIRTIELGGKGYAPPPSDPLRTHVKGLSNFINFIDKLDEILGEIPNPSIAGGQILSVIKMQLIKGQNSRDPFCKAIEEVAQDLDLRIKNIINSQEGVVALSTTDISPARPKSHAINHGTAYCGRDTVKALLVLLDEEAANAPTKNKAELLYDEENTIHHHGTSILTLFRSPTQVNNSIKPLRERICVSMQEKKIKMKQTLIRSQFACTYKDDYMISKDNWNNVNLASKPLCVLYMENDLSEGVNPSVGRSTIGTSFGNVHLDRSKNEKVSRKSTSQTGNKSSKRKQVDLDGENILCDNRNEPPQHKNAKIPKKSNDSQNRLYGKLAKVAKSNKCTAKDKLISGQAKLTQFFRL

T2: Recombinant Flag-tagged PARI purified from insect cells (human, UniProt Q9NWS1 1-579)
T2 sequence (looked up): T1 sequence (looked up)

B1: Recombinant human RAD51 expressed and purified from bacteria (natural protein, UniProt Q06609 1-339, looked up)
chain: MAMQMQLEANADTSVEEESFGPQPISRLEQCGINANDVKKLEEAGFHTVEAVAYAPKKELINIKGISEAKADKILAEAAKLVPMGFTTATEFHQRRSEIIQITTGSKELDKLLQGGIETGSITEMFGEFRTGKTQICHTLAVTCQLPIDRGGGEGKAMYIDTEGTFRPERLLAVAERYGLSGSDVLDNVAYARAFNTDHQTQLLYQASAMMVESRYALLIVDSATALYRTDYSGRGELSARQMHLARFLRMLLRLADEFGVAVVITNQVVAQVDGAAMFAADPKKPIGGNIIAHASTTRLYLRKGRGETRICKIYDSPCLPEAEAMFAINADGVGDAKD
B2: GST-tagged human RAD51 (natural protein, UniProt Q06609 1-339, looked up)
chain: B1 chain

Tests used:
[1] = molecular target: T1, GST-tagged full-length PARI; experiment: pull-down
[2] = molecular target: T2, Recombinant Flag-tagged PARI purified …; experiment: pull-down

binding result [1] | binding result [2] | Binder
binds | – | B1
– | binds | B2
